Our source for the IC50 values is paper PMC2868900.

The series has as its target thymidylate synthase (TS) (zebrafish) (UniProt A0ACM8Q3Q5). Description: competition EMSA. The settings on record: 37 C, 10 min, 100 ng TS (200 ng in Fig. 5B legend), 1 ng 32P TS mRNA, non-denaturing 5% acrylamide gel (60:1), binding buffer, salt and pH not given (cited ref.). In general terms: Mobility shift assays separate free from complexed probe on a gel.

thymidylate synthase (TS) (zebrafish), sequence (A0ACM8Q3Q5 entry or part of it): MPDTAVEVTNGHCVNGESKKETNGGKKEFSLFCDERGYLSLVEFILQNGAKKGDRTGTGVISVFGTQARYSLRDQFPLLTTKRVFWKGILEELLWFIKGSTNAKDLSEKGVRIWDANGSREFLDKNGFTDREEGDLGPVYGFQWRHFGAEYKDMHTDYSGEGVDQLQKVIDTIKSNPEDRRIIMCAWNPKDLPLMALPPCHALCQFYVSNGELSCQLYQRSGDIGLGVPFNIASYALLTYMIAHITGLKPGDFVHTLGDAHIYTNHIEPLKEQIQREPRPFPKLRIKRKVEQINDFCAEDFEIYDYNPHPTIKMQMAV

TS37-74 (TS37-72 in Methods): the IC50 (usually the concentration needed to halve the response being measured) is above 1000 nM.
In the case of TS1-145, the IC50 was determined as 0.52 nM.
Still for that read-out and setting: the value for full-length TS mRNA (TS1-1163) was 0.5 nM.
The same measure, in the same setting: in the case of TS581-1163 it was above 1000 nM.
Still for that read-out and setting: the value for TS1-580 was 0.48 nM; that for TS1-290 was 0.48 nM; that for TS146-290 was above 1000 nM.
In the case of TS1-72, the IC50 turned out to be 0.65 nM.
The same measure, in the same setting: the value for TS73-145 was above 1000 nM.
As to TS1-36, the IC50 was 0.6 nM.
Still for that read-out and setting: the value for TS291-580 was above 1000 nM.
As to luciferase mRNA, the IC50 (vs 32P full-length TS mRNA, 100-fold excess also did not compete (Fig. 3)) was above 1000 nM.
